# Literature values, collected in publication PMC5242463.
# Molecular target: Trigger Factor (Escherichia coli) (UniProt P0A850)
# Sequence (P0A850 whole entry): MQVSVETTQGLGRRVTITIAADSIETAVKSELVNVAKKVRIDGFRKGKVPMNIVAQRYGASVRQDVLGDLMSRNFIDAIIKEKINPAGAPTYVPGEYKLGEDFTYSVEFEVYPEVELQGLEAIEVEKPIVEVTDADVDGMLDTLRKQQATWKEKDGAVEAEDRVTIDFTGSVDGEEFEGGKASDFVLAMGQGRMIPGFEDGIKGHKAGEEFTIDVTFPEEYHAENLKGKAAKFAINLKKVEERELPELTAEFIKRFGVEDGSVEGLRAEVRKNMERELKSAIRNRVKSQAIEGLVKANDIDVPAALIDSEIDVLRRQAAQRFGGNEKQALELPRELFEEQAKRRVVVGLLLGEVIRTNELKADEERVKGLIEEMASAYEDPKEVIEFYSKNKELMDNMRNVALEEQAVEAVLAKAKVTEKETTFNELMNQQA
# Sequence of Nascent Lep (P00803 whole entry): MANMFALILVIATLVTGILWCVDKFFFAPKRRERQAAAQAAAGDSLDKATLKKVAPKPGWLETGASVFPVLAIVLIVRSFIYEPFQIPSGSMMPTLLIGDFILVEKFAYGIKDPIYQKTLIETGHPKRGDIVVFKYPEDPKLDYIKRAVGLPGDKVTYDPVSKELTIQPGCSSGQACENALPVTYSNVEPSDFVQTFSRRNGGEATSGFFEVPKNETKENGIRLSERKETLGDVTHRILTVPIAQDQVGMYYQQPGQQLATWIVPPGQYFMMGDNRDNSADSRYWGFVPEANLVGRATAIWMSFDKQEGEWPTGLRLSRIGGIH
substance,measurement,value
Nascent Lep (from UniProt P00803),Kd,311 nM
